± gives the uncertainty stated by the source.

This data set in a line: amyloid nucleation score (Sup35N fusion, yeast selection) (log enrichment); library NNK1; higher = more nucleation; inactive = no reads after selection. In outline:
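The nucleation score is the log enrichment of output over input reads, calculated with DiMSum and centred on the mode score of non-aggregating sequences. Sequences with under 100 input reads were excluded. Reads came from Illumina sequencing of plasmid inserts from psi-negative yeast expressing Sup35N fused to peptides of 20 random codons, induced 24 hours with 100 μM copper sulfate and grown 7 days at 30°C without adenine and uracil.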
Substance SRWPAVVRTLFRSCKV had an amyloid nucleation score of 0.48 ± 0.65. For CCRARDLIYLNITHAFFSIL the value was -0.289 ± 0.47; for QGNHVKCVLCRVIPMRCLGL, -1.41 ± 1.1; for DKEMECIYEYAL, 0.523 ± 0.55. As to AFTGQCEEKIS, the amyloid nucleation score is -0.226 ± 0.42. For GPSVPLGVFEKKTAFLKKTL the value was -0.328 ± 0.79; for YGFVAYSDIVKAFGVIKSTG, -0.315 ± 0.31. For MSNKTDEDESIYNRVGVIMG the value was 0.004 ± 0.33. As for LAGMMHAPVVLGLWSCDGDG, the figure is -0.974 ± 2.4; as for LRSCMRGGRKYRDS, -0.903 ± 0.58.

Regarding LGTCPYSPPEANN, the amyloid nucleation score is -0.604 ± 0.5. For FMLYTTVTERAWRHLN the value was 0.395 ± 0.36. Substance VYMRISFNEVMCFVCDTGSW showed an amyloid nucleation score of 7.485 ± 0.046. For TFTGDKIPIYSGVTVMASGM the value was 0.715 ± 0.84; for VVPPRTDSE, -0.364 ± 0.46; for IRGNVKETVIFFKTRFAFCW, 0.147 ± 0.73. As for RVNTCMSRGRA, the figure is -0.367 ± 0.61; as for HVLHNWSDHDRN, 1.23 ± 0.55; as for IYIMKHASSSMNGVSVQDFM, 0.695 ± 0.67. For IKVSIIGWGYILAPGGESNV the value was -1.28 ± 0.69; for ATLGDSEEYRLAFGLPLYCR, “inactive”; for GSDNLDFRCNWVYN, 0.616 ± 0.69. For the substance RTINMQLVTLYLTSRVVDNF, the amyloid nucleation score came to 1.1 ± 0.47. For LSVYA the value was 0.612 ± 0.45; for QQVSVLILPALTKGRKVV, -0.991 ± 0.69. Take GTYLAFYSLSLCRYTKCLER: the amyloid nucleation score is -0.22 ± 0.47. As for VGSLFYKVRPGNNSFVTHIH, the figure is 1.08 ± 0.88; as for AVPRAFIQKCSSITLSVYPM, -0.504 ± 0.99; as for GNDNCVRHGGRSSSRCLMKL, “inactive”. As for LLSPLTRLYFRKFFSVGKAW, the figure is 0.353 ± 1.2; as for HMVHGMFY, -0.251 ± 0.7. As for NKMIKWASQDGCRKVRFSEE, the figure is -0.427 ± 0.4; as for WMLVRAACLGIKRKNG, 0.759 ± 0.51; as for SLHCLMFVCSFRVSFEDWGE, 4.77 ± 0.13. As to NCHVT, the amyloid nucleation score was -0.271 ± 0.29. As for ALDQN, the figure is -0.412 ± 0.78. For SIVGWCICLREFSVRFSYAE the value was 5.48 ± 0.075; for FVVIEILDFSPFDHCFIILE, 1.26 ± 0.48. For TFTMSWLK the value was 3.22 ± 0.078; for YSRTNMFQ, -0.649 ± 0.5; for SRYALLIYVLEDGCLAVLKP, 0.562 ± 1.2. Take MVWSQVQLRIGVMVM: the amyloid nucleation score is -0.562 ± 0.4. As for VWLSMEFLCVYTCMPCWSQL, the figure is -0.423 ± 0.55. As for DALII, the figure is 0.257 ± 0.4; as for DRGMMCALVFYRHL, 0.691 ± 0.56. As for VDLLFDTNCNSF, the entry is “inactive”; as for HMWSESQIVGRLYVYRNIVV, 0.747 ± 0.81.

Take HLVKHVLCSKCTFDVLIIIY: the amyloid nucleation score is 1.08 ± 0.21. As for FWSMIGLWILDC, the figure is 0.031 ± 0.25; as for GSVINGWRRYLFVISILLGL, -0.374 ± 0.32; as for FELICRW, 0.516 ± 1.1.

Consider LSVGKKDS, for which the amyloid nucleation score was -0.292 ± 0.23. For KYKFVRANLILFGMVRG the value was -0.115 ± 0.25. For MDSTHSIPCHLNVFL the value was -0.475 ± 0.58. As for YIWFC, the figure is 6.28 ± 0.071.

Turning to NIKANQLKGTWKRRTMYRWS, the amyloid nucleation score was -0.271 ± 0.97. For MILTTPAAERLLYYILPLRD the value was -0.616 ± 0.81; for NYCFLNQDFCD, 3.61 ± 0.2; for YSSCFRSGIF, -0.68 ± 0.6.

As for NYCYSFIKYPLEPVKFLSAV, the amyloid nucleation score was -0.239 ± 1.1. Consider GRTFVHSLWACNNSYCSL, for which the amyloid nucleation score was 6.85 ± 0.088. As for FVGRSVCAKMTPHRLTAIGP, the figure is -0.082 ± 0.67. As for SFHWQKGSSSYTVSPHSAKL, the figure is 0.239 ± 0.26; as for CRLFVFPF, -0.336 ± 1.4; as for SYEHVGKPCSCGYGVEI, 0.735 ± 0.32. As for VELCHIRSLMFLIQHP, the figure is 1.05 ± 0.21; as for AVLSGRHWHTLYNSIALSEL, 0.869 ± 0.45; as for KVIRVYRADCCFTGWHFAVA, -0.224 ± 0.77.

For the substance VFITSVFVRECNTHESTTIQ, the amyloid nucleation score was determined as 8.073 ± 0.078. For SMPCQWR the value was 0.503 ± 0.51. For LSYSWADSAPLCCTPMRGRG the value was -0.324 ± 0.37; for FSEVTLFFPKDAILEFSARC, -0.353 ± 0.79. Turning to SVELGSGLMMWGTNSKLTVV, the amyloid nucleation score amounted to 0.649 ± 0.76. GTVVG gave an amyloid nucleation score of 0.041 ± 0.54. For WMDNTSHRFESCEV the value was 0.635 ± 0.55; for GQIGACVPLIGVAMGYLS, -0.418 ± 1.5. As for FTLIIRDLMFSRHEFRVHAG, the figure is -0.213 ± 0.39; as for EANCLFEWSMMLRYSARDGT, 0.312 ± 1.4. For VFLQFVMDDSHGLNK the value was “inactive”; for GKCFVVMWRVLGVDSVLMEV, -0.414 ± 0.25. FLAIILSWPFSAQFGFNVEG returned an amyloid nucleation score of 0.533 ± 0.62. For WLDHEISSELAGYPLWLSAN the value was 2.19 ± 0.17. For VTACYYSISFCVRGAMYGYV the value was 1.38 ± 0.33. For GKRIYPWVLNRSH the value was -0.209 ± 0.28; for TDCGSTMNGGCINMCVCGHR, 7.422 ± 0.069; for AWIPFVNTKTEWRVMDVNFD, 0.399 ± 0.62.

As for FSHAGD, the amyloid nucleation score was -0.494 ± 0.71. MPAMTMMWQ gave an amyloid nucleation score of 0.415 ± 0.4.

In turn, ARYHYWGGERASSLNKVSQW displayed an amyloid nucleation score of 0.699 ± 1.

For the substance TRLGYISRDKGYSPCR, the amyloid nucleation score is -0.146 ± 0.39. Take NHEKGQRTVTMWLSLKDSMG: the amyloid nucleation score came to 3.02 ± 0.12. As for ISTAVAIAGQQARNWGAHLR, the figure is -0.196 ± 0.46.

Regarding IIMVYSRSLLMLKLSLVVPC, the amyloid nucleation score entry is “inactive”. As for NLTVCVQCNAAYCNYLSHRD, the figure is 7.517 ± 0.071; as for GKGWYTDSMCRIRMMNARLL, 0.233 ± 0.34; as for DMDTQEFLYCSSVKFGSTKD, 5.408 ± 0.047. In turn, DFYNETVTFFTHKIVINNWT registered an amyloid nucleation score of 2.17 ± 0.31. As for SNFMGQD, the figure is 0.733 ± 0.7; as for FCPNHHNCVISCEWHSGALR, 2.51 ± 0.13. LLQNNCHLYYCLNGLVFRVR had an amyloid nucleation score of 0.162 ± 0.32. As for YNCWSSLNFYNPIFLRTLLG, the figure is 3.46 ± 0.21. For CWRFRPFRPASIKFTQYNNH the value was 4.49 ± 0.072. In the case of LNICGIWGGVVSEGARNVFY, the amyloid nucleation score came out at 0.063 ± 0.33. As for CEFLIFTFRVSGEVLLQSRA, the figure is 0.265 ± 0.92. As for HDSSF, the figure is -0.038 ± 0.56. In turn, NVCPFWGYKDAW displayed an amyloid nucleation score of 0.435 ± 0.22.

Consider HRSYHYMLLHTLEDRCRKN, for which the amyloid nucleation score entry is “inactive”. For the substance AIIDDHSVCYNVLKRFSNFG, the amyloid nucleation score turned out to be 1.5 ± 0.66. As for TWYLDFFSSPFLVGFSLSFG, the figure is 0.633 ± 0.49. For SAGAYGVRGRGSTLMVVFEW the value was -0.066 ± 0.54.

Consider LIGIVKGTTVSRMGNTVIDR, for which the amyloid nucleation score entry was “inactive”. For HESNMSMYYERYMLLSRNGS the value was 0.269 ± 0.23; for YDYSLCANIMNRYHAK, 0.333 ± 0.29. As for GSCLFVRGSFVDVGRLFESV, the figure is 0.643 ± 0.67. As for ISRDNNQTGLMGGLERRTES, the figure is 0.533 ± 0.65. In turn, GTFSDAFVLLIFCLYGINYL had an amyloid nucleation score of 1.54 ± 0.53. As for WPGLFMIY, the figure is 0.016 ± 0.49; as for ECFSKFLNLRGSPLG, -0.098 ± 0.53; as for CEEKCSHNVGTY, 0.458 ± 0.55. Turning to HIKASDFIW, the amyloid nucleation score was -0.333 ± 0.31.

As to VKFIGYFLRNTSSSSCTSDP, the amyloid nucleation score amounted to 0.097 ± 0.58. For DGGLCFLSMTTIIGGDTLDR the value was 0.018 ± 0.34.

For the substance CHNVAVPRVIVIGFDSGILY, the amyloid nucleation score turned out to be 0.341 ± 0.7.

Consider CFPPSNCYLLYKLCVLLRIN, for which the amyloid nucleation score is -0.134 ± 0.45.

Substance SVRVHFMVRHGLGVRLSASD showed an amyloid nucleation score of 1.61 ± 0.16. As for QGRLYSH, the figure is 0.438 ± 0.39. The substance IYMVSC displayed an amyloid nucleation score of 0.077 ± 0.27. As for LRSSWRTSIWHTWLWPYGDW, the figure is 0.287 ± 0.87; as for ISDFAYWQILCRVSDIFKVQ, 2.31 ± 0.13. As for VSMFRRVASEALYRQPSMLA, the figure is 0.972 ± 0.36.

Take FTGDVPEDTLRLSSFENMRR: the amyloid nucleation score was 0.384 ± 0.53. Take SLTDAEGSWLHRSWVKWNRC: the amyloid nucleation score is -0.208 ± 0.62. As for LSPSCCCFYVLGIVT, the figure is 3.57 ± 0.081; as for YSHDSSSTIFRNETPLSTPM, “inactive”; as for IKATGTRPRIHRYFGNC, -0.173 ± 0.58.

As to SGGIQCTGGRISVSCAVGKN, the amyloid nucleation score was -0.224 ± 0.94. As for GSHIVLSSFFGMLMLWGVDP, the figure is 0.56 ± 0.39.

With RLFLVEFIWNMR, the amyloid nucleation score was determined as 0.958 ± 0.71.

RYFNGYITGNLNSASNARSS displayed an amyloid nucleation score of 1.81 ± 0.18. For PWDSHSHHSTNRQLRFSSSG the value was -0.397 ± 0.6.

The values above are taken from the supplement of paper PMC12042874.
